30 sequences from the nanobody polyreactivity screen of Harvey et al. (2022) can be followed below.

The nature of the data set: yeast display, Sf9 membrane polyspecificity reagent, FACS + sequencing; frameworks hold sequencing errors. In a few lines: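 Sorting gates, low and high (top ~1%), were placed on anti-HA fluorescence to track expression and on streptavidin fluorescence to track reagent binding. A clone's polyreactivity label is taken from the gate it came out of. The reagent was 10% biotinylated, detergent-solubilized Sf9 membrane, applied for 1 hour at 4 °C to galactose-induced yeast display cells.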
Take “QVQHVESGGGLVQAGGSLRLSCAASGSTFYRYTMGWYRQPPGKEREFVATITGRGGSTYADSVKGRFTISRDNAKNTVYLQMNSLKPEDTAVYYCAKRQTYREYDYWGQGTQVTVSS”: the “polyreactivity (PSR sort gate)” value is reported as “low polyreactivity”. With “QVQHVESGGGLVQAGGSLRLSCAASGSTIRNYAMGWYRQAHGKERELVAAISSGGRTYYADSVKGRFTISRDNAKNPVYLQMTSLKPEDTAVYYCAARVYYWSFAGILYTPTGGYWGQGTQVTVSS”, the “polyreactivity (PSR sort gate)” value is “high polyreactivity”.

For “QVQHVESGGGLVQAGGSLRLSCAASGSTQTRNPMGWYRKAPGKERELVAAITQRGGSTYYADSVKGRFTISRDNAKNTVYLQMNSLKPEDTAVYYCAKVPSVKYRSIWVLPEYGWGQGTQVTVSS”, the “polyreactivity (PSR sort gate)” value is “low polyreactivity”.

For “QVQHVESGGGLVQAGGSLRLSCAASGTIFTVYAMGWYRQAPGKERELVAAITRNGGRTYYADSVKGRFTISRDNAKNTVYLQMNSLKPEDTAVYFCAAPGLYSRLDYWGQGTQVTVSS”, the “polyreactivity (PSR sort gate)” value is listed as “high polyreactivity”.

Take “QVQHVESGGGLVQAGGSLRLSCAASGYIFSRYRGWYRQAPGTERELVAAITRGGVSTYYADSVKGRFTISRDNAKNTVYLQMNSLKPEDTAVYYCATGRPVYYVASYDYDYWGQGTQVTVSS”: the “polyreactivity (PSR sort gate)” value is given as “low polyreactivity”. The entry for “QVQHVESGGGLVQAGGSLRLSCAASGYIFYTYAMGWYRQAPGKERELVAGINRGDSTNYADSVKGRFTISRDNAKNTVYLQMNSLKPEDTAVYYCNARQRTYYRTHRIRHKGNGYWGQGTQVTVSS” is “low polyreactivity”; for “QVQHVESGGGLVQAGGSLRLSCAASGYTFGYYAMGWYRQAPGKERELVASITERGGSTYYADSVKGRFTISRDNAKNTVYLQMNSLKPEDTAVYYCAADWDPSWWLFPTSSYDYWGQGTQVTVSS” it is “low polyreactivity”. The entry for “QVQHVESGGGLVQAGGSLRLSCAASGYTFYIYPMGWYRQAPGKERELVATISSSGGGTYYADSVKGRFTISRDNAKNTVYLQMNSLKPEETAVYYCAADSWRYVAEGLWREYDYWGQRTQVTVSS” is “low polyreactivity”. For “QVQHVESGGGLVQAGGSLRLSCAASGYTYDPNAMGWYRQAPGKERELVAAISRIGGSTYYADSVKGRFRISRDNAKNTVYLQMNSLKREDTAVYYCAQEYYDGYFPTFDYDYWGQGTQVTVSS”, the “polyreactivity (PSR sort gate)” value is reported as “low polyreactivity”. Take “QVQHVESGGGLVQAGGSLRLSCAASVRTFYTYAMGRDRQAPGKERELVAAISLSGTRTYYADSVKGRFTISRDNAKNTVYLQMNSLNPEDTAVYYCAADRFNKPYYYWGQGTQVTVSS”: the “polyreactivity (PSR sort gate)” value is on record as “high polyreactivity”. The entry for “QVQHVESGGGLVQAGGSLRLSCAASVSTFEYYAIGRYRQAPGKERELVASISSGGSTYYADSVKGRFTISRDNAKNTVYLQMNSLKPEDTAVYYCAADSYYGYEYWGQGTQVTVSS” is “low polyreactivity”; for “QVQHVESGGGLVQAGGSLRLSCASSGFILEPYGMGWYRPAPGKERELVAAITSGASTYYADSVKGRFTISRDNAMNTVYLQMNILKPEDTAVYYCAVDPYSTYSEYDSWGQGTQVTVSS” it is “low polyreactivity”; for “QVQHVESGGGLVQAGGSLRLSCASSGITFPDYSMGWYRQAPGKERELVAGISSTGDSTYYADSVKGRFTISRDNGKKTVYLQMNSLKPEDTAVYYCNAAQERPIIILFSKYDYWGQGTQVTVSS” it is “low polyreactivity”. To “QVQHVESGGGLVQAGGSLRLSCASSGSTFWFYAMGWYRQAPGKERELVATINWYGGTTNYADSVKGRFTISRDNAKNSVYLQMYSLKPEDTADYYGAGYQALTYGSYEYWGQGSQVTVSS” belongs “low polyreactivity”. To “QVQHVESGGGLVQAGGSLRLSCAVSGRTFYYYAMGWYRQAPGKERELVAAISSSGGSTYYADSVKGRFTISRDNAKNTVYLQMNSLKPEDTAVYYCAAAARKVSVSRYLYYYWGQGTQVTVSS” belongs “high polyreactivity”; to “QVQHVESGGGLVQAGGSLRLSCDASGRIFLYKAMGWYRQAPGKERELVAAIDGGGTTYADSVKGRFTISRDNAKNTVYLQRNSLKPEDTAVYYCAADWYYQYSIYRYGYWGQGTQVTVSS”, “low polyreactivity”; to “QVQHVESGGGLVQAGGSLRLSCPASGSIFARYAMGWYRQAPGKERELVAAITSGGITNYADSVMGRFTISRDNAKNTVYLQMISLNPEDTAVYYCAARRSGRVRYDYWGQGTQVTVSS”, “high polyreactivity”. “QVQHVESGGGLVQAGGSLRLSCPASGSTLYGYAMGWYRQEPGKESELVAAINTGASTNYADSVKGRFTISRDNAKNTVYLQMNSLKPEDTAVYYCAASYSLTFWDKDDYWGQGTQVTVSS”: the “polyreactivity (PSR sort gate)” value is reported as “low polyreactivity”. Consider “QVQHVESGGGLVQAGGSLRLSSAASGRIFKRNALGWYRQAPGKEREMVATISGSGGSTYYADSVKGRFTISRDNAKNTVYLQMNSLNPEDTAVYYCAAGYKSYWRLSSPKMDYWGQGTQVTVSS”, for which the “polyreactivity (PSR sort gate)” value is listed as “high polyreactivity”. The entry for “QVQHVESGGGLVQAGGSLRLSSAASGRTFYYNAMGWYRQAPGKERELVASITITDSTNYADSVKGRFTISRDNAKNTVYLQMNSLKPEDTAVYYCAKRGWGTSFYLSDYWGQGTQVTVSS” is “low polyreactivity”; for “QVQHVESGGGLVQAGGSLRLTCAATGRIFYTNTMGWYRQAPGKEREFVAAISWRGGSTYYADSVKGRFTISRDNAKNTVYLQMNSLKPEDTAVYYCAKTRTYFLSRYVSWGQGTQVTVSS” it is “high polyreactivity”.

As for “QVQHVESGGGLVQAGGSLSLICAASGSIFCYYAMGWYRKAPGKERELVAAIDSGGSTYYADSVKGRFTISRDNAKNTVYLQMNILKPEDTAVYYCAAGVSSFSPYDSWGQGTQVTVSS”, the “polyreactivity (PSR sort gate)” value is “low polyreactivity”. Consider “QVQHVESGGGLVQAGGSLSLSCAASGSTFKHYAMGWYRQAPGKERELVAAISSRGGSTHYADSVKGRFRISRDNAKNTVYLQMNSLKPEDTAVYYCARDTDPQSSRSSDYDYWGQGTQVTVSS”, for which the “polyreactivity (PSR sort gate)” value is recorded as “low polyreactivity”. In the case of “QVQHVESGGGLVQAGGSLSLSCADSGFIFRYYAMGWYRQAPGKERELDAAISWSGGSTYYADSVKGRFTISRDNSKNTVYLQMNSLKPEDTAVYYCAADRYAILFYAEDYWGQGSQVTVSS”, the “polyreactivity (PSR sort gate)” value was “low polyreactivity”.

“QVQHVESGGGLVQAGGSQRLSCAASGSIFDYYAMGWYRQAPGKERELVAAISTSTSSTYYADSVKGRFTISRDNAKNTVYLQLNSLKPEDTAVYYCAAVGESQPEYPGYDYWGQGTQVTVSS”: the “polyreactivity (PSR sort gate)” value was “low polyreactivity”. “QVQHVESGGGLVQAGGSRRLSCAASGSTFYGYAMGWYRQAPGKEREFVAAITTSGGSTYYADSVKGRFTISRDNANNTVYLQMNSLKPEDTAVYYCAADGFYYDDGYWGQGTQVTVSS”: the “polyreactivity (PSR sort gate)” value is recorded as “low polyreactivity”. The entry for “QVQHVESGGGLVQAGRSLRLICAASGSTFLEYAMGWYRQAPGKERELVASISWSGGSTNYADSVKGRFTFSRDNAKNTVYLQMNSLKPEDTAVFYCNARGWSVVSSRYGYWGQGTQVTVSS” is “low polyreactivity”.

On to “QVQHVESGGGLVQARGSLRLSCSASGVIFYNYAMGWSRQAPGKEREFVAAISGSGGSTYYADSVKGRFTISRDNAKNTVYLQMNSLKPEDTAVYYCAVRQRYGPARYDYWGQGTQVTVSS”, for which the “polyreactivity (PSR sort gate)” value is reported as “high polyreactivity”. To “QVQHVESGGGLVQGGGSLRLSCAASGSTFYAYAKGWYRQARGKERELVAVITSSGSTYYADSVKGRFTISRDNAKNTDYLQMNSLKAEDTAVYYCAAKRLSQSRRTQYRTRYQPMYYWGQGTQVTVSS” belongs “high polyreactivity”; to “QVQHVESGGGVVQAGGSLRLSCAASGSIFSRYTMGWYRQAPGKERELVAAITSSGGRTYYADSVKGRFTISRDNAKNTVYLQMNSLKPEDTSVYYFDARIPKQQGYGYWGQGTQVTVSS”, “high polyreactivity”.
